Reference: paper PMC11035981, “Activity assays of NnlA homologs suggest the natural product N-nitroglycine is degraded by diverse bacteria” (Beilstein Journal of Organic Chemistry, 2024)
Each block holds one molecule with its values, some of them ahead of it.

Columns and labels:
Test in all cases: SEC; analytical size exclusion, Superdex 200 Increase 10/300 GL, mobile phase 100 mM tricine, 100 mM NaCl, pH 7.5; masses from BioRad protein standards; self-association of each purified NnlA
[1] = target: NnlA homolog from Pseudovibrio denitrificans JCM 1230 (Pseudovibrio denitrificans JCM 1230)
[2] = target: NnlA homolog from Mycobacterium sp. 1465703.0 (Mycobacterium sp. 1465703.0)
[3] = target: NnlA homolog from Pseudonocardia spinosispora DSM 44797 (Pseudonocardia spinosispora DSM 44797)
[4] = target: N-nitroglycine lyase A (NnlA) from Variovorax sp. strain JS1663 (Variovorax sp. strain JS1663)
[5] = target: the molecule itself

Molecule: NnlA homolog from Pseudovibrio denitrificans JCM 1230 (enzyme)
stoichiometry N [1]: 2

Molecule: NnlA homolog from Mycobacterium sp. 1465703.0 (enzyme)
stoichiometry N [2]: 2

B1: NnlA homolog from Microbispora rosea subsp. nonnitritogenes strain NRRL B-2631 (enzyme)
chain: MTSQAEPAEAAESRIATDWGLDEWADRLIDQAGVGVTILNRHGTVMYYNKWASEHLDRRPEYIGNDVRKRHRRAVTNPRLDAMLKLFEDGRVEPVRYVARPYGKTTILVTVSPIRVDGELVGFSQIVLLKDEVQELCARFDESGRESFEREMLPNGPPAT
stoichiometry N [5]: 2

Further lines, results first:

stoichiometry N [3]: 2
Molecule: NnlA homolog from Pseudonocardia spinosispora DSM 44797 (enzyme)

stoichiometry N [4]: 2
Molecule: N-nitroglycine lyase A (NnlA) from Variovorax sp. strain JS1663 (enzyme)
